Laboratory results from a protein production outcome set (Wang et al. 2014).

Test: label from the status in PepcDB records

Row | Sequence | protein production
1 | MKILYIVLDGAADSPTSPRKTLEEASKPNIDSLGSHAVCGMVYTVKPGVAPQSDYATLSLLGYNPDEYYPGRGPLEAFGAGIEMRRGDIALRANFATVDPGTLRIIDRRVGRSLTSREARELASAVDGMELEDGEGTALFRATIGHRGVLVLRHRSKPLSDAISNTDPAYERRGRFSVALEKYEPFIKLSNPLVEDEAAVLAARMLNEFTLKAVEILDSHPVNLAREKRGLLKANAILSRDAGGLPEEKPPSFQERFGLRGASIVEMVVERGISRYIGLDDIRVEIEGRAREEVYREEAARAVEALETHDLVYVHLKGPDEPGHDGSFEGKIRAVEDIDKHFFAPLLDRLSSAGLEPAFVVTSDHATPWDVGAHSGDPVPLMISHQSIQ | failed
2 | MSMSSIPSSSPGGKRYGWVEKIGNKVPHPFLLFIYLIAVLIAATAILSALNVGVQNPTDGSRVVVKNLLSVEGLHWFLPNVIKNFSGFAPLGAILALVLGAGFAERVGLLPALMVKMASHVSARYASYMVLFIAFFSHISSDAALVIMPPLGALMFLAVGRHPVAGLLAAIAGVGCGFTANLLIVTTDVLLSGISTEAAKSIDASLHVSVIDNWYFMATSVIVLTLVGGLITDKLVEPRLGQWQGSRDEKLQTLTPAERFGLRIAGVATLVFVAVIALMVVPENGILRDPVQHTVMPSPFIKGIVPLIIFFFFVVSLAYGIATGKIRRQADLPQLMIEPMKEMAGFIVMVFPLAQFVAMFNWSNMGKFMAVGLTDLLESSGMNGVPAFVGLALLSAFLCMFIASGSAIWSILAPIFVPMFMLLGFHPAFAQILFRIADSSVLPLAPVSPFVPLFLGFLQRYRPDARLGTYYSLVLPYPLIFLAVWLLLLVGWYLVGLPIGPGIYPRLS | failed
3 | MTGQAAGPAAGPAAGQATKHAGGRRPGETRTREAILTAARVCFAERGFDATSLRRIAETAGVDQSLVHHFYGTKENLFLQALELPGKIEEAITAAAQGGLDGIGERVVRAHLSVWDDVSSRPALMTMVRSAAIHRAAAARLRETATGILARALGGVITGEDAMLRTSMVATQLVGLAMMRYVAHLEPLASADTDTVARHYGRAVQAIVTDRD | not failed
4 | MTFALGQRWISDTESDLGLGTVVAMDARTVTLMFAASEENRVYARNDAPVTRVTFNVGDVIDCQEGWSLKVEEVLEDEGLYTYFGTREDTQETAVVLREIFLSNQIRFNKPQDKLYAGQIDRMDNFVLRY | failed
5 | MRLLFSFSCRRRWRERERLRRMREIKMIKLPHKKPIIFFCQLFLIATLIIACHQTTIHTSTNTCTPNYNPNQDYFPNKIKITHARGLAVEYHKHYKVVTIKNPWQNAKTQFQYVLVQCGTPTPQGFKQAQVITVPIHSIVSLSTTHLPHLAKLGVVDKLIGISNSKQVNTPDVVERIKAGKITQVGNNSNVDIERLLELNPDLVTTFGTGNSQTDSYSKLTEAGLKVGINAEYMEDTPLGRSEWLKFTALFFNQEEKAEKIFAEITDKYEQVAQKVKSVKNRPTVFVGFNFKGTWFMPGGNSYVAKYLADAGGDYLWSNEQSAGSLPLSFEVVLERATNADYWLNFSQSWQSLKDLLAEDNRYADFKSVKIGNLYNNNARVNESGGNDYWEGGISNPDIVLSDLIRILHPEILPNHQLFYYHKILK | failed
6 | MKKNIVVLVLIVLIIFSAGSGCISSDVISSANTSSDEADGNTGENSALGKSADSEPDQANITPYGKSSPYLYWEYELGDVTPENTLGGRSSVQDCVSFAPDGKSVATGTGSNLTVVSVSEKNVLWTKILSGNISDLTFSEDGKYLLVGEKSADGCIYSLDANTGEEIRTYRTSDDLGTDSNPKYQPCIYKITAAEDSVYVAAGRYWKDSKYGLASRVYGFSPDGTFSWKLPATENYARSVNWIDASQDGKNVVYSIGDWTNSLESDAVVYSVDAGGKLRWKYEIPALRPYFVSAAIWHGLDVSEDGSLVTAYTGDGRTYLFYDAEMKDPGDGKSEWYSEEYQSNVTTPEELEGSAIYTYGENAKIAADNEILYLTGATLPAYYPDNIPMAHPLENSLISCDAEKGETSWTYNLGGRCAGIFFSQDMRYFVLPVGKDTSTGDTRVHGVYVFDSRKSGNGNSKLLWTFRTEGVVENAAISSNCTVAAVEVPLQLENGDVTGKHRLIIVR | failed
7 | MFPFGPHSPGGDETAGAEEPPPLGGPAAASRPPSPAPRPASPQRGADAASPPPVAGSPRLPGGPAVSPAERAGEFAAPGALELSAATASASQAKLSPSSSPRRRSRPDWRAGGRSRQGLGAGLGGPGARLFGWLRERSLGRGLFVDPARDNFRTMTNLYGSIHPADSVYLSTRTHGAVFNLEYSPDGSVLTVACEQTEVLLFDPISSKHIKTLSEAHEDCVNNIRFLDNRLFATCSDDTTIALWDLRKLNTKVCTLHGHTSWVKNIEYDTNTRLLVTSGFDGNVIIWDTNRCTEDGCPHKKFFHTRFLMRMRLTPDCSKMLISTSSGYLLILHELDLTKSLEVGSYPILRARRTTSSSDLTTTSSSSGSRVSGSPCHHNDSNSTEKHMSRASQREGVSPRNSLEVLTPEVPGERDRGNCITSLQLHPKGWATLLRCSSNTDDQEWTCVYEFQEGAPVRPVSPRCSLRLTHYIEEANVGRGYIKELCFSPDGRMISSPHGYGIRLLGFDKQCSELVDCLPKEASPLRVIRSLYSHNDVVLTTKFSPTHCQIASGCLSGRVSLYQPKF | failed
8 | MTETIPVFDGHNDFLLRLLRNPANRETIWLKGDGTGHLDLPRMKEGGFAGGFFAIYVPSPQAHDAAHFEAMMDAPPFELPLPPMIRAEQAQPVALAMAGHLLWMERAARGRFKVCRTAAEVRSCHADGIVSGIMHMEGAEAIGADLDALHLFHSLGLRSLGPVWSRPTVFGHGVPFRFPGSPDTGEGLTEAGRRLVAECNRLKIMLDLSHLNEKGFDDVARLSDAPLVATHSNAHAVTPSTRNLTDRQLAMIRESRGMVGLNFATSFLREDGRRSAEMGWEPVLRHLDHLIDRLGEDHVGMGSDFDGATIPQGIADVTGLPALQAAMRAHGYDEPLMRKLCHENWYGLLERSWG | not failed
9 | MYEAHFGLKQLPFTLTPNTSLFHGLSPHYEAIHTVLSAISMGEGIIKVTGEVGTGKTLVCRMLINELPSNVELLYLPNPVMNGHELRQALAKELWLDQSGDDIALIDRIHEKIIDLHAEGKLVVVFIDEAQALSDEALETLRLFGNLETDYKKLLQIVLFGQPELDERLQQHNLRQLRQRITFSALLRALNMNETVAYIRYRIAESGCENNPFSLVQMKAIWKATNGIPRLINQVCHKSLLIAFSEQVNNVPSKAVFNAIIDTADTVKPKHYFPTFWGWRVSLEHHHHHH | not failed
10 | SDPDADRVGIACKNDKGEWVLINGNQTCLMYLYYIITQYNKLGKMTGNEFCVKTIVTTELIKKIADKNHIEMLDCYTGFKWIAREIRLREGKKKYIGGGEESYGFLAEDFVRDKDAVSACCLIAEVAAWAKDNGKTLYQLLMDIYVEYGFSKE | failed
11 | MSDAAISGRREQGWLAGLGNWIPARFRRDIPVVPVVRLSGTIGAVTPLRPGLTLAGVAKLLDRAFSTRNAKAVALAINSPGGSPVQSRLIYLRIRALAAEKKLPVYAFVEDVAASGGYMIACAADEIYCDPSSILGSIGVVGGGFGFQELIRKIGVERRLYTAGERKAQLDPFLPEDPQEVARLKVLQQEIHALFIALVKESRGTRLKGEESKLFTGEYWAGATSVSLGLADSIGDLRAVLRGKFGDKVRTPLISPPTGLLANLSRKSSGAGASLDGVAALPESMITALETRAIWAKYGF | failed
12 | EPLKDAVLIEGLPGIGHVGRVAAEHIVEEFNGEKVLELYCDDFPPQIVVKNDGTIEYMKNEFYLVKEPVPMVIVLGNTQALSPKGQYVLSEKIVDIAMKYGATKTYTLGGFGIGKISDELKVYVASTSKELSEQHKELGAEFRTDGGSIIGAAGLMLKFSKLKGIEGICLMGETPGYLVDPKSAGNVLEMLSKAIGFEIDMKKLDERAKEMEKFIEKVQMQEQGMQAPQHQDDLSYIG | failed
13 | MTIYHFVGIKGSGMSALAQILHDKGFQVQGSDVDKYFFTQKALEEKQIPIMTFSADNIQEGLTIIAGNAFPDTHEEIERALELGLSVIRYHKFLGQLIDGYTSIAITGSHGKTSTTGLLSHVVGAIRPTSYLIGDGTGSGTKDAEYFALEACEYQRHFLAYKPTYAIMTNIDWDHPDYFKSVDDVFNAFETLGKQVKKAVFALGDDAELRKLTLDIPIIYFGFGEENEFQAKNVIKETTGTKFDVYHREEFLSSFEIPAYGDHNVLNALSVIALCDYEGLPVEDVKNELKTFEGVKRRFSITEKGNQVLVDDYAHHPSEIRATVNAARQKYPDKKVVAVFQPHTFTRTRTFLQGFADSLNLADEVYLCDIFGSAREKTGNLTIADLAHKTKGNHIIKEEHTEELLKYPEAVILFMGAGDVQKFQAAYEKVLDHEFLTEADLKKSAIN | failed
14 | MTLPRLILPLLIAAACALGGCAYNPDLGRDQLLIVNDNNLARDGEKAWADALRTSHVSKEPRKNARVQAVGQRVIVAAGLAGRPWEYAVFLEEAPNAFVLPGGYVGVTVGLLSLVENDDQLAAVIGHEAGHVVARHAAERVSQETTSKVLLGIAKAAAGGTEFGKLLKDHGEDATRYGLLLPFSRKQELEADKLGVDFMQRAGYRPREAVKLWRNMQALDGGKSGGDLGSTHPSDAVRIQELERYLASKGWLEHHHHHH | failed
15 | MESEKKIAHEIGGVKNDALRFGLHGVKSNIIGSHPLESSYESEKKSKEALKRTVIAHAYGTALPLKMDMDRQILSRFQRPPGPIPSSMLGLEVYTGAVDDFGFEDYLNDPRDSETFKPVDFHHGMEVRLGISKGPIYPSFM | failed
16 | MFKPEEMVKIELISLARYRDIIMTYLHERGVVQLEEVPIEDIQHDAPNEYYRKATSYSITMGRLVDTLKGFLPPRKTSIKEFIFPKEREKRVYTYRGIEDLVKDVEKFLSEVEPKIREVETQLTAINNRIANIREIINTLELLSSLNIEIEYLIPGSFLAIEVGKIERERVEKLIGELKNELGDKVFILRRDLGTISLLVVVTLKEFQGKLTSILAKYGFEKVEIPRERGHPRELIPKYNELLKEEMKKLEEIRKKGREFAEKYYEDLVFYKELMDNERDKANYLSYLARTELTVALVGWLPKKNVEEVVEGIKNLTGGKVYINIREPEPNEIEEVPVKLKNPEFISQFEMLTEMYGVPKYNELDPTPILAFTYSFFFGFMLTDFMYGLLLGIVSALLVKGHSKMKDGTWKFAKIMLWSSVFTMLLGALFGSYFGNALDMAGFKVPRIMDAMEEALTVLIIALAIGLGHLFTGYVLGFIVKWKNGDKVGAILDQLSWILIILGVTLFAISSRIDLPKLAWMSVFGAGAVLFIIGEFKNNGLMALLLVISDFFGFVGNWLSYARLMALALATAGIALVINIMVQMIWGFKIGPVPLGIIVGAIVFIGGHIFSTAINALGAFVHALRLHYVEFFGTFYSGEGRRFEPFAARREISELKIEKPGGE | failed
17 | MSSFFTGKDDSAVEELLSQAKDQYVLEQVAKINCSGFTDDTALPTNPETRLRRLKSLPVSRTDSVSSSPKKLLSHSNSMASHPEKKYRGNVSSVSSFSIQVGKSCPLDSSVEETQIFSKTKRNQSVKSRGGLGESSGSKRIGSSSSRFSCGNVSSTGSSSSRFSREGNISTATKTLKLPC | not failed
18 | MRVGVLGAKGKVGATMVRAVAAADDLTLSAELDAGDPLSLLTDGNTEVVIDFTHPDVVMGNLEFLIDNGIHAVVGTTGFTAERFQQVESWLVAKPNTSVLIAPNFAIGAVLSMHFAKQAARFFDSAEVIELHHPHKADAPSGTAARTAKLIAEARKGLPPNPDATSTSLPGARGADVDGIPVHAVRLAGLVAHQEVLFGTEGETLTIRHDSLDRTSFVPGVLLAVRRIAERPGLTVGLEPLLDLH | not failed
